± gives the standard error. For some of these results: This sample holds only a part of the variants without activity.
B1: glmS ribozyme (parent)
chain: AUAAAAGCGCCAGAACUACAGAAAUGUAGUUGACGAGGAGGAGGUUUAUCGAAUUUUCGGCGGAUGCCUCCAAA

What was measured:
Settings in all cases: with glucosamine-6-phosphate
[1] = variants of: B1; experiment: kcat; higher = faster cleavage; RNA array
Outline: (§1)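 Using a hybridised Cy3 probe at 37 °C, barcoded ribozyme variants transcribed in situ by E. coli RNA polymerase on sequenced MiSeq chips were monitored across tiles imaged over ~14 h. The flow contained glucosamine-6-phosphate from 40 μM to 10 mM in HEPES/KCl/Mg(OAc)2 buffer. Signals were normalised to baseline and to non-cleaving reference variants before per-tile medians were fit to one- or two-exponential decays to yield kobs. Weighted Michaelis–Menten fits across concentrations gave kcat and KM.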

[2] = variants of: B1; experiment: KM; higher = weaker cofactor use; RNA array
Outline: as §1

[3] = variants of: B1; experiment: self-cleavage kobs at 40 uM GlcN6P; higher = faster cleavage; RNA array
Outline: as §1

[4] = variants of: B1; experiment: self-cleavage kobs at 160 uM GlcN6P; higher = faster cleavage; RNA array
Outline: as §1

[5] = variants of: B1; experiment: self-cleavage kobs at 640 uM GlcN6P; higher = faster cleavage; RNA array
Outline: as §1

[6] = variants of: B1; experiment: self-cleavage kobs at 2500 uM GlcN6P; higher = faster cleavage; RNA array
Outline: as §1

[7] = variants of: B1; experiment: self-cleavage kobs at 10000 uM GlcN6P; higher = faster cleavage; RNA array
Outline: as §1

Variant	kcat [1] [s⁻¹]	KM [2] [µM]	self-cleavage kobs at 40 uM GlcN6P [3] [s⁻¹]	self-cleavage kobs at 160 uM GlcN6P [4] [s⁻¹]	self-cleavage kobs at 640 uM GlcN6P [5] [s⁻¹]	self-cleavage kobs at 2500 uM GlcN6P [6] [s⁻¹]	self-cleavage kobs at 10000 uM GlcN6P [7] [s⁻¹]
A39C A53C	0.00121 ± 6.7e-05	2680 ± 240	2.09e-05 ± 8.9e-06	7.25e-05 ± 1.1e-05	0.000221 ± 2.6e-05	0.000595 ± 6.8e-05	0.000957 ± 0.0001
A12G A53C	0.000173 ± 3.8e-05	2220 ± 1100	–	–	5e-05 ± 6.8e-06	7.64e-05 ± 8.5e-06	0.000157 ± 1.5e-05
G13U U31G	0.000294 ± 0.0001	–	–	2.89e-05 ± 1.3e-05	4.24e-05 ± 8.5e-06	0.000226 ± 2.7e-05	0.000207 ± 2.6e-05
U46A U54C	0.00402 ± 0.0012	3310 ± 1300	4.31e-05 ± 1.1e-05	0.000153 ± 3.9e-05	0.000982 ± 0.00017	0.00157 ± 0.00051	0.00295 ± 0.00051
U46A U54A	0.00331 ± 0.00047	1420 ± 350	0.000104 ± 1.9e-05	0.000321 ± 8.4e-05	0.000932 ± 0.00035	0.00181 ± 0.00029	0.00334 ± 0.00047
G40C C70U	0.000498 ± 0.00011	512 ± 240	4.61e-05 ± 9e-06	0.000155 ± 3.2e-05	0.0002 ± 3.4e-05	0.000428 ± 9.7e-05	0.000555 ± 6.8e-05
G40U A42G	0.00742 ± 0.00078	1330 ± 220	0.000214 ± 4e-05	0.00072 ± 0.00018	0.00267 ± 0.00058	0.00567 ± 0.001	0.00603 ± 0.001
G7U C70G	0.000479 ± 0.00015	–	0.000382 ± 0.00012	0.000844 ± 0.0002	0.0004 ± 0.00014	–	–
A14C C67A	0.00149 ± 0.00032	1850 ± 600	3.89e-05 ± 9.3e-06	0.000145 ± 2.4e-05	0.000337 ± 4.4e-05	0.00079 ± 0.00013	0.00146 ± 0.00024
G51A C71G	2.05e-05 ± 3.5e-06	–	–	–	–	–	–
G40U U65C	6.53e-05 ± 8.5e-06	–	–	–	–	6.94e-05 ± 1.5e-05	5.76e-05 ± 1.1e-05
C16U U46C	0.0025 ± 0.00034	1320 ± 290	7.03e-05 ± 1.7e-05	0.000295 ± 4.9e-05	0.000646 ± 0.00017	0.00192 ± 0.00029	0.00208 ± 0.00033
U47G C58A	0.000264 ± 4e-05	2260 ± 690	–	–	5.5e-05 ± 1.2e-05	0.000177 ± 4.2e-05	0.000208 ± 3.2e-05
A42G U54C	0.0476 ± 0.013	3020 ± 1100	0.000795 ± 0.00016	0.00208 ± 0.001	0.0066 ± 0.0019	–	0.0394 ± 0.008
A14G G40U	0.00991 ± 0.0013	1350 ± 250	0.000302 ± 4.1e-05	0.00117 ± 0.00023	0.00267 ± 0.00043	0.00713 ± 0.0011	0.00879 ± 0.0013
A12U A48U C70A	5.26e-05 ± 1.7e-05	–	–	–	–	6.36e-05 ± 2e-05	4.16e-05 ± 1.5e-05
A52U U56C	2.72e-05 ± 1.5e-06	1210 ± 330	–	–	–	–	–
C16G U69A	4.79e-05 ± 1e-05	–	–	–	6.57e-05 ± 1.6e-05	5.05e-05 ± 1.2e-05	3.59e-05 ± 1.2e-05
G7U C16U C50G U69G	0.000615 ± 0.00015	–	0.00029 ± 0.00013	–	0.0012 ± 0.00039	0.000564 ± 0.0002	0.00054 ± 0.00017
G32A G59A	1.74e-05 ± 3.1e-06	–	–	< 1e-05	–	–	–
G13U C68U	0.000114 ± 6.9e-06	1630 ± 310	–	–	2.76e-05 ± 8.2e-06	7.37e-05 ± 8.5e-06	9.63e-05 ± 8.5e-06
U30G U31C	0.00345 ± 0.00042	2530 ± 520	4.81e-05 ± 8.9e-06	0.000238 ± 3.9e-05	0.000578 ± 0.00015	0.00207 ± 0.0003	0.00267 ± 0.00025
U30C U56C	0.000116 ± 7.6e-06	4270 ± 610	–	–	–	4.38e-05 ± 4.8e-06	8.1e-05 ± 7e-06
C10G A15G	1.16e-05 ± 4e-06	–	–	–	–	–	–
U31G U45A A52G	0.000908 ± 0.00012	4890 ± 1500	–	–	–	0.000361 ± 0.00013	0.000604 ± 8.7e-05
A6G A53G	0.000509 ± 6.7e-05	2390 ± 600	–	3.62e-05 ± 1.3e-05	9.71e-05 ± 1.5e-05	0.000306 ± 4.1e-05	0.000395 ± 4.4e-05
A52G U54C	0.00197 ± 7e-05	2700 ± 150	2.55e-05 ± 1.1e-05	0.000111 ± 1.8e-05	0.000379 ± 5.7e-05	0.000985 ± 0.00015	0.00153 ± 0.00019
C16A C67G	4.14e-05 ± 5.2e-06	–	–	–	3.73e-05 ± 1.5e-05	2.82e-05 ± 1.1e-05	4.37e-05 ± 8e-06
U65A C71U	0.00196 ± 0.00076	–	0.000139 ± 2.2e-05	0.000277 ± 4.1e-05	0.00117 ± 0.00012	0.0011 ± 0.0002	0.00301 ± 0.00053
